# Article PMC12102759
# B1: MXI1 peptide 6-21 (Max-interacting protein 1), 16-mer library wild type / SIN3A PAH2 (SIN3A PAH domain, residues 295-383) (parent)
# chain 1: MINVQRLLEAAEFLER
# chain 2: SLQNNQPVEFNHAINYVNKIKNRFQGQPDIYKAFLEILHTYQKEQRNAKEAGGNYTPALTEQEVYAQVARLFKNQEDLLSEFGQFLPDA
# B2: ATXN2 peptide 911-926 (Ataxin-2), 16-mer library wild type / PABPC1 PABC (PABPC1 PABC domain, residues 544-623) (parent)
# chain 1: KSTLNPNAKEFNPRSF
# chain 2: PLTASMLASAPPQEQKQMLGERLFPLIQAMHPTLAGKITGMLLEIDNSELLHMLESPESLRSKVDEAVAVLQAHQAKEAA
# Variants of: B1
# Test: proteomic peptide phage display deep mutational scan (ProP-PD DMS): M13 P8 16-mer library selected against immobilised GST-tagged bait for four days (rounds), NGS of the eluted pools per day and pseudo-replica
# Details: with SIN3A PAH2 (SIN3A PAH domain, residues 295-383); bait immobilised on MaxiSorp plates (10 µg), library pre-cleared on GST, 2 h binding at 4 °C, five washes; one round per day, days 1-4; value from days 2 and 3; keep out of graded; scale: average fractional NGS count over selection days 2 and 3
row,Variant,screen value
1,chain 1 MINVQRLNEAAEFLER,7.15e-05
2,chain 1 MINVQRLREAAEFLER,4.34e-05
3,chain 1 MINVQRLFEAAEFLER,7.63e-05
4,chain 1 MINVQRLWEAAEFLER,6.64e-05
5,chain 1 MINVQRLLEASEFLER,8.92e-05
6,chain 1 MINVQRLLEADEFLER,0.000105
7,chain 1 MINVQRLLEAAEFFER,3.78e-05
8,chain 1 MINVQRMLEAAEFLER,0
9,chain 1 MINVQRLLEMAEFLER,1.91e-05
10,chain 1 MINVQRLLEIAEFLER,4.73e-05
11,chain 1 MIRVQRLLEAAEFLER,4.48e-05
12,chain 1 MIQVQRLLEAAEFLER,5.31e-05
13,chain 1 TINVQRLLEAAEFLER,0
14,chain 1 LINVQRLLEAAEFLER,3.46e-05
15,chain 1 AINVQRLLEAAEFLER,6.67e-05

# Next, values leading:
row,screen value,Variant
1,2.84e-05,chain 1 MINVQRLAEAAEFLER
2,2.84e-05,chain 1 MINVQRLLEAVEFLER
3,9.14e-05,chain 1 MINVQRLLEATEFLER
4,0,chain 1 MINVQRLLEAAEFAER
5,5.17e-05,chain 1 MINVQRLLEAAEFTER
6,7.31e-05,chain 1 MINVQRLLEAAEFQER
7,0,chain 1 MINVQRRLEAAEFLER
8,6.69e-05,chain 1 MINVQRVLEAAEFLER
9,0,chain 1 MINVQRLLEQAEFLER
10,0,chain 1 MINVQRLLERAEFLER
11,2.36e-05,chain 1 MINVQRLLEHAEFLER
12,0,chain 1 MIAVQRLLEAAEFLER
13,6.22e-05,chain 1 MGNVQRLLEAAEFLER
14,0,chain 1 MKNVQRLLEAAEFLER
15,8.47e-05,chain 1 HINVQRLLEAAEFLER
16,0,chain 1 MINVDRLLEAAEFLER
17,4.79e-05,chain 1 MINVQRLLEAAEPLER
18,1.91e-05,chain 1 MINVQRLLEAAEILER

# Variants of: B2
# Test: as above
# Details: with PABPC1 PABC (PABPC1 PABC domain, residues 544-623); bait immobilised on MaxiSorp plates (10 µg), library pre-cleared on GST, 2 h binding at 4 °C, five washes; one round per day, days 1-4; value from days 2 and 3; scale: average fractional NGS count over selection days 2 and 3
row,Variant,screen value
1,chain 1 KSTLSPNAKEFNPRSF,2.4e-05
2,chain 1 KSTLAPNAKEFNPRSF,0
3,chain 1 KSTLQPNAKEFNPRSF,0
4,chain 1 KSTLDPNAKEFNPRSF,0
5,chain 1 KSTLNHNAKEFNPRSF,4.64e-05
6,chain 1 KSTLNPNANEFNPRSF,0.00453
7,chain 1 KSTLNPNASEFNPRSF,0.0022
8,chain 1 KSTLNPNAQEFNPRSF,0.001
9,chain 1 KSTLNPNAAEFNPRSF,0.000101
10,chain 1 KSTLNPNAFEFNPRSF,0.000915
11,chain 1 KSTLNPNAIEFNPRSF,0.0153
12,chain 1 KSTLNPNAKEFNFRSF,0.00012
13,chain 1 KSTLNPNAKEFNVRSF,0.031
14,chain 1 KSTLNPNAKEFNNRSF,0.000178
15,chain 1 KSTLNPNAKEFNHRSF,0
16,chain 1 KSTLNPNAKEFNMRSF,0
17,chain 1 KSTLNPNAKEFNDRSF,1.92e-05
18,chain 1 KSTLNPNAKEFNYRSF,0.000164
19,chain 1 KSTMNPNAKEFNPRSF,0.000137
20,chain 1 KSTYNPNAKEFNPRSF,0
21,chain 1 KSTLNPNAKDFNPRSF,0
22,chain 1 KSTLNPNAKTFNPRSF,0.000321
23,chain 1 KSTLNPNAKEFNPREF,0.000122
24,chain 1 KSTLNPNAKEFNPRVF,0.000546
25,chain 1 KSTLNPNAKEFNPRPF,0.000243

# Results, then the variant that gave them:
row,screen value,Variant
1,0.000875,chain 1 KSTLNINAKEFNPRSF
2,0,chain 1 KSTLNYNAKEFNPRSF
3,0.00101,chain 1 KSTLNVNAKEFNPRSF
4,0.000389,chain 1 KSTLNLNAKEFNPRSF
5,0,chain 1 KSTLNANAKEFNPRSF
6,0.000277,chain 1 KSTLNPNADEFNPRSF
7,0.000159,chain 1 KSTLNPNAPEFNPRSF
8,0.00113,chain 1 KSTLNPNAEEFNPRSF
9,0.00168,chain 1 KSTLNPNAHEFNPRSF
10,0.000242,chain 1 KSTLNPNAGEFNPRSF
11,0.0042,chain 1 KSTLNPNAMEFNPRSF
12,0.000884,chain 1 KSTLNPNAYEFNPRSF
13,0.00284,chain 1 KSTLNPNALEFNPRSF
14,0.000868,chain 1 KSTLNPNATEFNPRSF
15,0.00121,chain 1 KSTLNPNAREFNPRSF
16,0.00243,chain 1 KSTLNPNAKEFNGRSF
17,0.000637,chain 1 KSTLNPNAKEFNWRSF
18,0.000517,chain 1 KSTLNPNAKEFNIRSF

row,screen value,Variant
1,0.000246,chain 1 KSTLNPNAKEFNERSF
2,1.02e-05,chain 1 KSTLNPNAKEFNTRSF
3,0.00026,chain 1 KSTLNPNAKEFNLRSF
4,0.000212,chain 1 KSTLNPNAKEFNARSF
5,0.00338,chain 1 KSTLNPNAKEFNQRSF
6,0,chain 1 KSTFNPNAKEFNPRSF
7,0,chain 1 KSTLNPNAKRFNPRSF
8,0,chain 1 KSTLNPNAKQFNPRSF
9,0,chain 1 KSTLNPNAKSFNPRSF
10,0.000349,chain 1 KSTLNPNAKVFNPRSF
11,0.000717,chain 1 KSTLNPNAKHFNPRSF
12,0.000583,chain 1 KSTLNPNAKEFNPRNF
13,0,chain 1 KSTLNPNAKEFNPRDF
14,0,chain 1 KSTLNPNAKEFNPRGF
15,4.17e-05,chain 1 KSTLNPNAKEFNPRTF
16,0.000677,chain 1 KSTLNPNAKEFNPRHF
17,0.00242,chain 1 KSTLNPNAKEFNPRLF
18,0.000136,chain 1 KSTLNPNAKEFNPRFF
